Results from US20210300999A1 (VANDERBILT UNIVERSITY, published 2021).

Experiments:
[1] = biological target: SARS-CoV-2 Spike trimer (Table A) (SARS-CoV-2, UniProt P0DTC2 14-1208); assay: ELISA, purified IgG
[2] = biological target: T1, SARS-CoV-2 prefusion-stabilized trimeric spike ectodomain (S2Pecto) (SARS-CoV-2, UniProt P0DTC2 14-1213; P10104 458-484); assay: hACE2 blocking ELISA on coated S2Pecto; competitor hACE2
[3] = biological target: T1, SARS-CoV-2 prefusion-stabilized …; assay: ELISA on coated antigen

B1: COV2-2514 (antibody, V domains shown)
VH: EVQLVESGGGVVRPGGSLRLSCAASGFIFDDYDMTWVRQAPGKGLEWVSGINWNGGSTGYADSVKGRFTISRDNAKNSLYLQMNSLRAEDTALYHCAVIMSPIPRYSGYDWAGDAFDIWGQGTMVTVSS
VL: SSELTQDPAVSVALGQTVRITCQGDSLRSYYASWYQQKPGQVPILVIYDKNNRPSGIPDRFSGSSSGNTASLTITGAQAEDEADYYCNSRDSSGNAVVFGGGTKLTVL
[1]
  ELISA OD 450 nm: 3.56 OD 450 nm

B2: COV2-3025 (antibody, V domains shown)
VH: EVQLVQSGPEVKKPGTSVKVSCKASGFTFMSSAVQWVRQARGQRLEWIGWIVIGSGNTNYAQKFQERVTITRDMSTSTAYMELSSLRSEDTAVYYCAAPYCSSISCNDGFDIWGQGTMVTVSS
VL: EIVLTQSPGTLSLSPGERVTLSCRASQSVSSSYLAWYQQKPGQAPRLLIYGASSRATGIPDRFSGSGSGTDFTLTISRLEPEDFAVYYCQHYGSSRGWTFGQGTKVEIK
[1]
  ELISA OD 450 nm: 3.7 OD 450 nm
[2]
  IC50: 0.041 µg/mL
[3]
  EC50: 0.0011 µg/mL

B3: COV2-2094 (antibody, V domains shown)
VH: B1 VH
VL: B1 VL
[1]
  ELISA OD 450 nm: 4.3 OD 450 nm
[2]
  IC50: 0.053 µg/mL
[3]
  EC50: 0.0018 µg/mL
